Biological target: the molecule itself
Experiment: dimer bands on SDS-PAGE (Western blot with rho1D4 antibody, silver stain); immunoaffinity-purified receptors in 0.01% or 0.2% detergent; Novex 10% Bis-Tris gels, samples kept at room temperature 10 min, not boiled

B1: CXCR4^QTY29 with C-terminal GSSG linker and rho1D4 tag (receptor, UniProt P61073 1-352, looked up)
chain: MEGISIYTSDNYTEEMGSGDYDSMKEPCFREENANYNKTFLPTIYSIIYQTGTVGNGLVILVMGYQKKLRSMTDKYRLHLSTADLQFVTTLPYWATDATANWYFGNFLCKAVHVIYTVNLYSSVLILAFISLDRYLAIVHATNSQRPRKLLAEKVVYVGVWTPAQLLTTPDYTFANVSEADDRYICDRFYPNDLWVVVFQFQHIMVGLILPGIVILSCYCIIISKLSHSKGHQKRKALKTTTTLIQAFFACWQPYYTGISIDSYILLEIIKQGCEFENTVHKWISTTEAQAFYHCCTNPTQYAYLGAKFKTSAQHALTSVSRGSSLKILSKGKRGGHSSVSTESESSSFHSS
notes: CXCR4, UniProt P61073, with 29 QTY replacements of lipid-facing transmembrane residues; also called QTY variant; source: E. coli cell-free reaction mix (pIVex2.3) with Brij-35; captured from crude supernatant (SPR); not shown: rho1D4 tag (after a GSSG linker), C-terminal, kept
B1: binds.

From PMC7721705, “The G protein coupled receptor CXCR4 designed by the QTY code becomes more hydrophilic and retains cell signaling activity” (Scientific Reports, 2020)
